Experimental data taken from IntAct's records for PubMed 20346719.

B1: Flagellar motor switch protein FliM (Escherichia coli (strain K12)), P06974 (parent)
chain: MGDSILSQAEIDALLNGDSEVKDEPTASVSGESDIRPYDPNTQRRVVRERLQALEIINERFARHFRMGLFNLLRRSPDITVGAIRIQPYHEFARNLPVPTNLNLIHLKPLRGTGLVVFSPSLVFIAVDNLFGGDGRFPTKVEGREFTHTEQRVINRMLKLALEGYSDAWKAINPLEVEYVRSEMQVKFTNITTSPNDIVVNTPFHVEIGNLTGEFNICLPFSMIEPLRELLVNPPLENSRNEDQNWRDNLVRQVQHSQLELVANFADISLRLSQILKLNPGDVLPIEKPDRIIAHVDGVPVLTSQYGTLNGQYALRIEHLINPILNSLNEEQPK
partner: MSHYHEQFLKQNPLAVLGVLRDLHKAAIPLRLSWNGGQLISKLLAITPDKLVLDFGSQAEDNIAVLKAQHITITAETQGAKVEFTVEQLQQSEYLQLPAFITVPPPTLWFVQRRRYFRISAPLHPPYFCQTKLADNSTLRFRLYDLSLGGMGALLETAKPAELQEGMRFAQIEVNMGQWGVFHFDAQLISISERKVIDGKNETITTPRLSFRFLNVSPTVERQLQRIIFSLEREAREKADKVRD
B2: Flagellar motor switch protein FliG (Escherichia coli (strain K12)), P0ABZ1 (parent)
chain: MSNLTGTDKSVILLMTIGEDRAAEVFKHLSQREVQTLSAAMANVTQISNKQLTDVLAEFEQEAEQFAALNINANDYLRSVLVKALGEERAASLLEDILETRDTASGIETLNFMEPQSAADLIRDEHPQIIATILVHLKRAQAADILALFDERLRHDVMLRIATFGGVQPAALAELTEVLNGLLDGQNLKRSKMGGVRTAAEIINLMKTQQEEAVITAVREFDGELAQKIIDEMFLFENLVDVDDRSIQRLLQEVDSESLLIALKGAEQPLREKFLRNMSQRAADILRDDLANRGPVRLSQVENEQKAILLIVRRLAETGEMVIGSGEDTYV
partner: B1 partner
B3: Flagellar brake protein YcgR (Escherichia coli (strain K12)), P76010 (parent)
chain: B1 partner
partner: B1 chain
B4: Flagellar brake protein YcgR (Escherichia coli (strain K12)), P76010 (parent)
chain: B1 partner
partner: B2 chain

Variants of: B1
Settings: with ycgr_ecoli ycgR

Variant | effect of a mutation on the interaction
MGDSILSQAEIDALLNGDSEVKDEPTASVSGESDIRPYDPNTQRRVVRERLQALEIINERFARHFRMGLFNLLRRSPDITVGAIRIQPYHEFARNLPVPTNLNLIHLKPLRGTGLVVFSPSLVFIAVDNLFGGDGRFPTKVEGREFTHTEQRDINRMLKLALEGYSDAWKAINPLEVEYVRSEMQVKFTNITTSPNDIVVNTPFHVEIGNLTGEFNICLPFSMIEPLRELLVNPPLENSRNEDQNWRDNLVRQVQHSQLELVANFADISLRLSQILKLNPGDVLPIEKPDRIIAHVDGVPVLTSQYGTLNGQYALRIEHLINPILNSLNEEQPK [V153D] | decreasing interaction
MGDSILSQAEIDALLNGDSEVKDEPTASVSGESDIRPYDPNTQRRVVRERLQALEIINERFARHFRMGLFNLLRRSPDITVGAIRIQPYHEFARNLPVPTNLNLIHLKPLRGTGLVVFSPSLVFIAVDNLFGGDGRFPTKVEGREFTHTEQRVIERMLKLALEGYSDAWKAINPLEVEYVRSEMQVKFTNITTSPNDIVVNTPFHVEIGNLTGEFNICLPFSMIEPLRELLVNPPLENSRNEDQNWRDNLVRQVQHSQLELVANFADISLRLSQILKLNPGDVLPIEKPDRIIAHVDGVPVLTSQYGTLNGQYALRIEHLINPILNSLNEEQPK [N155E] | decreasing interaction
MGDSILSQAEIDALLNGDSEVKDEPTASVSGESDIRPYDPNTQRRVVRERLQALEIINERFARHFRMGLFNLLRRSPDITVGAIRIQPYHEFARNLPVPTNLNLIHLKPLRGTGLVVFSPSLVFIAVDNLFGGDGRFPTKVEGREFTHTEQRVINEMLKLALEGYSDAWKAINPLEVEYVRSEMQVKFTNITTSPNDIVVNTPFHVEIGNLTGEFNICLPFSMIEPLRELLVNPPLENSRNEDQNWRDNLVRQVQHSQLELVANFADISLRLSQILKLNPGDVLPIEKPDRIIAHVDGVPVLTSQYGTLNGQYALRIEHLINPILNSLNEEQPK [R156E] | disrupting interaction
MGDSILSQAEIDALLNGDSEVKDEPTASVSGESDIRPYDPNTQRRVVRERLQALEIINERFARHFRMGLFNLLRRSPDITVGAIRIQPYHEFARNLPVPTNLNLIHLKPLRGTGLVVFSPSLVFIAVDNLFGGDGRFPTKVEGREFTHTEQRVINRMLKEALEGYSDAWKAINPLEVEYVRSEMQVKFTNITTSPNDIVVNTPFHVEIGNLTGEFNICLPFSMIEPLRELLVNPPLENSRNEDQNWRDNLVRQVQHSQLELVANFADISLRLSQILKLNPGDVLPIEKPDRIIAHVDGVPVLTSQYGTLNGQYALRIEHLINPILNSLNEEQPK [L160E] | disrupting interaction
MGDSILSQAEIDALLNGDSEVKDEPTASVSGESDIRPYDPNTQRRVVRERLQALEIINERFARHFRMGLFNLLRRSPDITVGAIRIQPYHEFARNLPVPTNLNLIHLKPLRGTGLVVFSPSLVFIAVDNLFGGDGRFPTKVEGREFTHTEQRVINRMLKLALEGYSRAWKAINPLEVEYVRSEMQVKFTNITTSPNDIVVNTPFHVEIGNLTGEFNICLPFSMIEPLRELLVNPPLENSRNEDQNWRDNLVRQVQHSQLELVANFADISLRLSQILKLNPGDVLPIEKPDRIIAHVDGVPVLTSQYGTLNGQYALRIEHLINPILNSLNEEQPK [D167R] | decreasing interaction
MGDSILSQAEIDALLNGDSEVKDEPTASVSGESDIRPYDPNTQRRVVRERLQALEIINERFARHFRMGLFNLLRRSPDITVGAIRIQPYHEFARNLPVPTNLNLIHLKPLRGTGLVVFSPSLVFIAVDNLFGGDGRFPTKVEGREFTHTEQRVINRMLKLALEGYSDAWKAINPLRVEYVRSEMQVKFTNITTSPNDIVVNTPFHVEIGNLTGEFNICLPFSMIEPLRELLVNPPLENSRNEDQNWRDNLVRQVQHSQLELVANFADISLRLSQILKLNPGDVLPIEKPDRIIAHVDGVPVLTSQYGTLNGQYALRIEHLINPILNSLNEEQPK [E176R] | decreasing interaction

Variants of: B2
Settings: with ycgr_ecoli ycgR

Variant | effect of a mutation on the interaction
MSNLTGTDKSVILLMTIGEDRAAEVFKHLSQREVQTLSAAMANVTQISNKQLTDVLAEFEQEAEQFAALNINANDYLRSVLVKALGEERAASLLEDILETRDTASGIETLNFMEPQSAADLIRDEHPQIIATILVHLKRAQAADILALFDERLRHDVMLRIATFGGVQPAALAELTEVLNGLLDGQNLKRSKMGGVRTAAEIINLMKTQQEEAVITAVREFDGELAQKIIDEMFLFENLVDVDDRSIQRLLWEVDSESLLIALKGAEQPLREKFLRNMSQRAADILRDDLANRGPVRLSQVENEQKAILLIVRRLAETGEMVIGSGEDTYV [Q252W] | decreasing interaction
MSNLTGTDKSVILLMTIGEDRAAEVFKHLSQREVQTLSAAMANVTQISNKQLTDVLAEFEQEAEQFAALNINANDYLRSVLVKALGEERAASLLEDILETRDTASGIETLNFMEPQSAADLIRDEHPQIIATILVHLKRAQAADILALFDERLRHDVMLRIATFGGVQPAALAELTEVLNGLLDGQNLKRSKMGGVRTAAEIINLMKTQQEEAVITAVREFDGELAQKIIDEMFLFENLVDVDDRSIQRLLQEVDSESLLIALKGAEQPLREKFLRNMSQRAADILRDDLAWRGPVRLSQVENEQKAILLIVRRLAETGEMVIGSGEDTYV [N292W] | decreasing interaction
MSNLTGTDKSVILLMTIGEDRAAEVFKHLSQREVQTLSAAMANVTQISNKQLTDVLAEFEQEAEQFAALNINANDYLRSVLVKALGEERAASLLEDILETRDTASGIETLNFMEPQSAADLIRDEHPQIIATILVHLKRAQAADILALFDERLRHDVMLRIATFGGVQPAALAELTEVLNGLLDGQNLKRSKMGGVRTAAEIINLMKTQQEEAVITAVREFDGELAQKIIDEMFLFENLVDVDDRSIQRLLQEVDSESLLIALKGAEQPLREKFLRNMSQRAADILRDDLANRGWVRLSQVENEQKAILLIVRRLAETGEMVIGSGEDTYV [P295W] | decreasing interaction

Variants of: B3
Settings: with flim_ecoli fliM

Variant | effect of a mutation on the interaction
MSHYHEQFLKQNPLAVLGVLRDLHKAAIPLRLSWNGGQLISKLLAITPDKLVLDFGSQAEDNIAVLKAQHITITAETQGAKVEFTVEQLQQSEYLQLPAFITVPPPTLWFVQRRRYFRISAPLHPPYFCQTKLADNSTLRFRLYDLSLGGMGALLETAKPAELQEGMRFAQIEVNMGQWGVFHFDAQLISISERKVIDGKNETITTPRLSFRFLNVSPTVERPLQRIIFSLEREAREKADKVRD [Q223P] | disrupting interaction
MSHYHEQFLKQNPLAVLGVLRDLHKAAIPLRLSWNGGQLISKLLAITPDKLVLDFGSQAEDNIAVLKAQHITITAETQGAKVEFTVEQLQQSEYLQLPAFITVPPPTLWFVQRRRYFRISAPLHPPYFCQTKLADNSTLRFRLYDLSLGGMGALLETAKPAELQEGMRFAQIEVNMGQWGVFHFDAQLISISERKVIDGKNETITTPRLSFRFLNVSPTVERQLQRWIFSLEREAREKADKVRD [I227W] | disrupting interaction

Variants of: B4
Settings: with flig_ecoli fliG

Variant | effect of a mutation on the interaction
MSHYHEQFLKQNPLAVLGVLRDLHKAAIPLRLSWNGGQLISKLLAITPDKLVLDFGSQAEDWIAVLKAQHITITAETQGAKVEFTVEQLQQSEYLQLPAFITVPPPTLWFVQRRRYFRISAPLHPPYFCQTKLADNSTLRFRLYDLSLGGMGALLETAKPAELQEGMRFAQIEVNMGQWGVFHFDAQLISISERKVIDGKNETITTPRLSFRFLNVSPTVERQLQRIIFSLEREAREKADKVRD [N62W] | decreasing interaction
MSHYHEQFLKQNPLAVLGVLRDLHKAAIPLRLSWNGGQLISKLLAITPDKLVLDFGSQAEDNIAVLKAQHITITAETQGADVEFTVEQLQQSEYLQLPAFITVPPPTLWFVQRRRYFRISAPLHPPYFCQTKLADNSTLRFRLYDLSLGGMGALLETAKPAELQEGMRFAQIEVNMGQWGVFHFDAQLISISERKVIDGKNETITTPRLSFRFLNVSPTVERQLQRIIFSLEREAREKADKVRD [K81D] | decreasing interaction
